{"source": "patent US20140170168A1", "about": "(published 2014)", "binders": {"B1": {"name": "Fab 2C3 (Fab, V domains shown)", "VH": "QVQLVQSGGGVVQPGRSLRLSCAASGFTFSSYAMHWVRQAPGKGLEWVAVISYDGSNKYYADSVKGRFTISRDNSKNTLYLQMNSLRAEDTAVYYCARDRSFWSGYYIINYYYYGMDVWGQGTTVTVSS", "VL": "DVVMTQSPLSLPVTPGEPASISCRSSQSLLHSDGNNYLDWYLQKPGQSPQLLIYLGSNRASGVPDRFSGSGSGTDFTLKISRVEPEDVGVYYCMQALHIPLTFGQGTRLEIKR", "notes": "also called 2C3 Fab"}, "B2": {"name": "RTL1000 (two-domain β1α1 HLA-DR2 with covalently linked human MOG-35-55 peptide) (peptide-MHC)", "chain": "MEVGWYRPPFSRVVHLYRNGKGGGGSLVPRGSGGGGPRFLWQPKRECHFFNGTERVRFLDRYFYNQEESVRFDSDVGEFRAVTELGRPDAEYWNSQKDILEQARAAVDTYCRHNYGVVESFTVQRRVIKEEHDIDQDEDYDNPDQSGEFMFDFDGDEIFHVDMAKKETVWRLEEFGRFASFEAQGALANIAVDKANLEIMTKRSNYTPITNGGGGSGGGGSGGGGSGGGGSLHHILDAQKMVWNHR", "notes": "also called RTL1000-BirA; DR2/MOG-35-55"}, "B3": {"name": "Fab 2E4 (Fab, V domains shown)", "VH": "EVQLVESGAEVKKPGASVKVSCKASGYTFTSYYMHWVRQAPGQGLEWMGIINPSGGSTSYAQKFQGRVTMTRDTSTSTVYMELSSLRSEDTAVYYCAREGDNYYGDAFDIWGQGTMVTVSS", "VL": "EIVLTQSPATLSLSPGERATLSCRASQSVSSYLAWYQQKPGQAPRLLIYDASNRATGIPARFSGSGSGTDFTLTISSLEPEDFAVYYCQQRSNWPPSYTFGQGTKLEIKR", "notes": "also called 2E4 Fab; anti-RTL1000 TCRL Fab"}}, "key": {"[1]": {"target": "B2", "assay": "SPR (ProteOn XPR36), Fab captured by immobilised anti-Fab, RTL1000 injected at 62.5-1000 nM"}, "[2]": {"target": "T1, RTL342m (two-domain β1α1 HLA-DR2 with mouse MOG-35-55 peptide) (mouse)", "T1 construct": "Differs from RTL1000 by the Pro to Ser change at position 42 of MOG; also called DR2/mMOG-35-55; β1α1DR2/mMOG-35-55", "T1 chain": "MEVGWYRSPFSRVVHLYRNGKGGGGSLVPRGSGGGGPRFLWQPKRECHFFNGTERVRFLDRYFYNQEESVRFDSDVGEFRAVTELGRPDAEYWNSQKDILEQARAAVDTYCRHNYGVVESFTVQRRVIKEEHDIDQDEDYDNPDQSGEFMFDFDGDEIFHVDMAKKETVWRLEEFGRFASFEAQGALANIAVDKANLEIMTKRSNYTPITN", "assay": "ELISA, soluble Fab on immobilised RTL (FIG. 3A)"}, "[3]": {"target": "T2, RTL302 (empty DR2 RTL) loaded with free MOG-35-55 peptide (human)", "T2 construct": "also called empty β1α1DR2-RTL loaded with MOG-35-55 peptide; MOG-35-55 loaded empty RTL302", "T2 chain": "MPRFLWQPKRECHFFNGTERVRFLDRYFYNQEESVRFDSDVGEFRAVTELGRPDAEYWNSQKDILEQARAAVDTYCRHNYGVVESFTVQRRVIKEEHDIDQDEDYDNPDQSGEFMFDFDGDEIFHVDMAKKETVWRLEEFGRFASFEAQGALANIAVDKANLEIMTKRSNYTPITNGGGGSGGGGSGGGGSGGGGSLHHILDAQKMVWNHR", "T2 peptide": "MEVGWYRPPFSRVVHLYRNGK", "assay": "sandwich ELISA: plate coated with purified Fab, loaded or empty RTL302 added, detection with mAb TU39"}, "[4]": {"target": "T3, RTL302 (empty two-domain HLA-DR2 RTL) (human)", "T3 construct": "Two-domain MHC class II without antigenic peptide; also called empty DR2; DR2 (empty)", "T3 chain": "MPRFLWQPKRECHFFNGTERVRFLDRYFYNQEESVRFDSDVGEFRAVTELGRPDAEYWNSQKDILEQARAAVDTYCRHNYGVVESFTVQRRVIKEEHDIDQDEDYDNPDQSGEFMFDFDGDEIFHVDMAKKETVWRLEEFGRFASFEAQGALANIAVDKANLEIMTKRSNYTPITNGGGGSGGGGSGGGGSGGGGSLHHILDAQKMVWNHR", "assay": "ELISA, soluble purified Fab on immobilised biotinylated complex or peptide"}, "[5]": {"target": "T4, RTL340 (two-domain β1α1 HLA-DR2 with covalently linked MBP-85-99 peptide) (human)", "T4 construct": "also called RTL340-BirA; DR2/MBP-85-99", "T4 chain": "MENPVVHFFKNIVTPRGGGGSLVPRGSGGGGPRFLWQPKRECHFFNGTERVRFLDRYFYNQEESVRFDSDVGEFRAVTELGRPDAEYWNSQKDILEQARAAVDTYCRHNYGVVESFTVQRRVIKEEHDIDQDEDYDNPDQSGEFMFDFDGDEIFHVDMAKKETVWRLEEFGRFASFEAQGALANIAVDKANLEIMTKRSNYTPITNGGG", "assay": "ELISA, soluble purified Fab on immobilised biotinylated complex or peptide"}, "[6]": {"target": "T5, RTL2010 (two-domain β1α1 HLA-DR4 with covalently linked GAD-555-567 peptide) (human)", "T5 construct": "also called RTL2010-BirA", "T5 chain": "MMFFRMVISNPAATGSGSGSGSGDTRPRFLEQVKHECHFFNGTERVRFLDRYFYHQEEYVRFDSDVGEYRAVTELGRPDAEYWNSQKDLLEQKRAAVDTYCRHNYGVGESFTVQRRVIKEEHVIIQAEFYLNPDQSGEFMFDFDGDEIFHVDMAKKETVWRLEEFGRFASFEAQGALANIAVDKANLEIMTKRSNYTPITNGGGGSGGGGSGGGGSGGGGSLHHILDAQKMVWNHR", "assay": "ELISA on immobilised RTL and four-domain complex (FIG. 8C)"}, "[7]": {"target": "B1", "assay": "competition ELISA: soluble competitor varied, binding of purified Fab 2C3 to immobilised RTL1000 read"}, "[8]": {"target": "B3", "assay": "competition ELISA: soluble competitor varied, binding of purified Fab 2E4 to immobilised RTL1000 read"}, "[9]": {"target": "T5, RTL2010 (two-domain β1α1 HLA-DR4 with …)", "assay": "ELISA, purified Fab 1B11 on immobilised RTLs and four-domain complexes"}, "[10]": {"target": "T6, RTL600 (empty two-domain HLA-DP2 RTL) (human)", "T6 construct": "also called DP2 (empty)", "T6 chain": "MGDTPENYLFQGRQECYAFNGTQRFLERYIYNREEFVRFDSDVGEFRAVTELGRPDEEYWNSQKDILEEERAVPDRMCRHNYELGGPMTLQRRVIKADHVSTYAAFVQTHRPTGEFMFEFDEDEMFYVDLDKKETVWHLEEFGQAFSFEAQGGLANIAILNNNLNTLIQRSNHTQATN", "assay": "ELISA, purified Fab 1B11 on immobilised RTLs and four-domain complexes"}}, "data": [{"binder": "Fab 1F11 (Fab, V domains shown, also called 1F11 Fab) VH: QLQLQESGPGLVKPSETLSLTCTVSGVSISSRSGHWGWVRQPPGKGLEWIGSISYSGSTYYNPSLKSRVTISVDTSKNQLSLKLSSVTAADTAVYYCARESHPAAALVGWGQGTLVTVSS VL: ETTLTQSPGTLSLSPGERATLSCRASQSIINSHLAWYQQKPGQAPRLLIYGASSRATGIPDRFSGGGSGTDFTLTITRLETEDFALYFCQQYGTSPLTFGGGTRVETKR", "values": [{"measurement": "Kd", "setting": "[1]", "value": 60, "unit": "nM"}, {"measurement": "fold reduction in binding to RTL342m compared to RTL1000", "setting": "[2]", "value": 5, "unit": "fold"}, {"measurement": "binding result", "setting": "[3]", "value": "binds"}, {"measurement": "binding result", "setting": "[4]", "value": "no binding (tested: 5 µg/ml Fab)"}, {"measurement": "binding result", "setting": "[5]", "value": "no binding (tested: 5 µg/ml Fab)"}]}, {"binder": "B1", "values": [{"measurement": "Kd", "setting": "[1]", "value": 153, "unit": "nM"}, {"measurement": "binding result", "setting": "[3]", "value": "binds"}, {"measurement": "binding result", "setting": "[4]", "value": "no binding (tested: 5 µg/ml Fab)"}, {"measurement": "binding result", "setting": "[5]", "value": "no binding (tested: 5 µg/ml Fab)"}]}, {"binder": "Fab 3A3 (Fab, V domains shown, also called 3A3 Fab) VH: QVQLQESGGGLVKPGGSLRLSCAASGFTFSSYSMNWVRQAPGKGLEWVSSISSSSSYIYYADSVKGRFTISRDNAKNSLYLQMNSLRAEDTAVYYCARVRGHRYYYDSSGYYSSDYYYYYGMDVWGQGTTVTVSS VL: DIQLTQSPSSVSASVGDRVTITCRASQVISSWLAWYQQKPGKAPKLLISTASSLQSGVPPRFSGSGSGTDFTLTITSLQPEDFATYYCQQANSFPLTFGQGTKVEIKR", "values": [{"measurement": "Kd", "setting": "[1]", "value": 58, "unit": "nM"}, {"measurement": "fold reduction in binding to RTL342m compared to RTL1000", "setting": "[2]", "value": 5, "unit": "fold"}, {"measurement": "binding result", "setting": "[3]", "value": "binds"}, {"measurement": "binding result", "setting": "[4]", "value": "no binding (tested: 5 µg/ml Fab)"}, {"measurement": "binding result", "setting": "[5]", "value": "no binding (tested: 5 µg/ml Fab)"}]}, {"binder": "Fab D2 (Fab, V domains shown, the heavy chain entry holds VH, CH1, connector, His tag and Myc tag; also called D2 Fab) VH: EVQLVQSGAEVKKPGSSVKVSCKASGGTFSSYAISWVRQAPGQGLEWMGIINPSGGSTSYAQKFQGRVTITADKSTSTAYMELSSLRSEDTAVYYCARGGPTGIFDYWGQGTLVTVSS VL: EIVLTQSPATLSLSPGERATLSCRASQSVSSYLAWYQQKPGQAPRLLIYDASNRATGIPARFSGSGSGTDFTLTISSLEPEDFAVYYCQQRSNWPLTFGGGTKVEIKR", "values": [{"measurement": "binding result", "setting": "[6]", "value": "binds"}]}, {"binder": "Fab 3H5 (Fab, V domains shown, also called 3H5 Fab) VH: QVQLQESGPGLVKPSETLSLTCTVSGGSISGYYWSWIRQPPGKGLEWIGYIYYSGSTNYNPSLKSRVSISVDTSKNQFSLRLSSVTAADSAVYFCARDERDAYYYGMDVWGQGTTVTVSS VL: not shown", "values": [{"measurement": "Kd", "setting": "[1]", "value": 129, "unit": "nM"}, {"measurement": "binding result", "setting": "[3]", "value": "binds"}, {"measurement": "binding result", "setting": "[4]", "value": "no binding (tested: 5 µg/ml Fab)"}, {"measurement": "binding result", "setting": "[5]", "value": "no binding (tested: 5 µg/ml Fab)"}]}, {"binder": "B2", "values": [{"measurement": "binding result", "setting": "[7]", "value": "binds"}, {"measurement": "binding result", "setting": "[8]", "value": "binds"}]}, {"binder": "Fab 1B11 (Fab, V domains shown, also called 1B11 Fab) VH: EVQLVQSGAEVKKPGASVRVSCKASGYTFTSYGISWVRQAPGQGLEWMGWISAYNGNTNYAQKLQGRVTMTTDTSTSTAYMELRSLRSDDTAVYYCARDIRAYGSGSYSRYYYYGMDVWGQGTTVTVSS VL: EIVLTQSPATLSVSPGERATLSCRASQNIGSILAWYQHKPGQAPRLLIYGASTRATGIPARFSGSGSGTEFTLTISSLQSDDFAVYYCQQYLYWPFTFGGGTKVEIKR", "values": [{"measurement": "binding result", "setting": "[4]", "value": "binds"}, {"measurement": "binding result", "setting": "[9]", "value": "binds"}, {"measurement": "binding result", "setting": "[10]", "value": "no binding (tested: 5 µg/ml Fab)"}]}, {"binder": "B3", "values": [{"measurement": "Kd", "setting": "[1]", "value": 33, "unit": "nM"}, {"measurement": "fold reduction in binding to RTL342m compared to RTL1000", "setting": "[2]", "value": 2, "unit": "fold"}, {"measurement": "binding result", "setting": "[3]", "value": "binds"}, {"measurement": "binding result", "setting": "[4]", "value": "no binding (tested: 5 µg/ml Fab)"}, {"measurement": "binding result", "setting": "[5]", "value": "no binding (tested: 5 µg/ml Fab)"}]}]}
